According to the supplement of paper PMC9112550, “Optimization of the antimicrobial peptide Bac7 by deep mutational scanning” (BMC Biology, 2022):

Tested on: Escherichia coli TOP10
Test: shrunken log2 fold change of peptide-encoding DNA abundance (4.5 h post-induction vs induction); higher = less antimicrobial activity (less host growth inhibition)
Details: time post-induction: 4.5 h; library: site-saturation at positions 5, 18, 19, 20
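Also: peptides expressed intracellularly from a pBAD plasmid library in pooled LB shake-flask culture, induced with 0.3% L-arabinose, DNA abundance read by NGS, three biological replicates, DESeq2 with apeglm shrinkage.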

First: RRIRRRPPRLPRPRPRPRFAPRP
Second: RRIRTRPPRLPRPRPRPLIYPRP
The “shrunken log2 fold change” value of the first is higher: 0.616 for the first, -0.174 for the second.

Going from RRIRHRPPRLPRPRPRPPPEPRP to RRIRARPPRLPRPRPRPFQAPRP, the “shrunken log2 fold change” value falls from 0.836 to 0.0111.

Compared with RRIRQRPPRLPRPRPRPTFYPRP, RRIRTRPPRLPRPRPRPKIWPRP is higher in “shrunken log2 fold change” value: -0.116 for the first, 0.141 for the second.

First: RRIRVRPPRLPRPRPRPHDGPRP
Second: RRIRRRPPRLPRPRPRPCNPPRP
The “shrunken log2 fold change” value of the first is higher: 0.0377 for the first, -0.466 for the second.

RRIRQRPPRLPRPRPRPYDAPRP and RRIRSRPPRLPRPRPRPIKEPRP are within 0.2 log units of each other in “shrunken log2 fold change” value: 0.0382 for the first, -0.0466 for the second.

RRIRDRPPRLPRPRPRPCNMPRP and RRIRHRPPRLPRPRPRPLAFPRP are within 0.2 log units of each other in “shrunken log2 fold change” value: -0.225 for the first, -0.2 for the second.

Compared with RRIRFRPPRLPRPRPRPMGDPRP, RRIRCRPPRLPRPRPRPTNIPRP is lower in “shrunken log2 fold change” value: -0.0467 for the first, -0.662 for the second.

RRIRFRPPRLPRPRPRPICKPRP and RRIRFRPPRLPRPRPRPGSMPRP are within 0.2 log units of each other in “shrunken log2 fold change” value: -0.0703 for the first, -0.255 for the second.

Going from RRIRHRPPRLPRPRPRPMARPRP to RRIRWRPPRLPRPRPRPWRQPRP, the “shrunken log2 fold change” value rises from 0.0467 to 0.25.

RRIRARPPRLPRPRPRPMYWPRP and RRIRPRPPRLPRPRPRPEYAPRP are within 0.2 log units of each other in “shrunken log2 fold change” value: -0.0443 for the first, 0.0857 for the second.

Going from RRIRKRPPRLPRPRPRPSATPRP to RRIRMRPPRLPRPRPRPGSQPRP, the “shrunken log2 fold change” value rises from 0.368 to 0.926.

First: RRIRERPPRLPRPRPRPYMGPRP
Second: RRIRIRPPRLPRPRPRPTAEPRP
The “shrunken log2 fold change” value of the first is lower: -1.01 for the first, -0.0333 for the second.

Going from RRIRERPPRLPRPRPRPPSWPRP to RRIRDRPPRLPRPRPRPSSYPRP, the “shrunken log2 fold change” value falls from -0.2 to -0.738.

RRIRRRPPRLPRPRPRPYRRPRP and RRIRYRPPRLPRPRPRPTVEPRP are within 0.2 log units of each other in “shrunken log2 fold change” value: 0.0385 for the first, 0.0629 for the second.

Going from RRIRWRPPRLPRPRPRPEQLPRP to RRIRIRPPRLPRPRPRPFEYPRP, the “shrunken log2 fold change” value falls from 0.00937 to -0.709.

RRIRDRPPRLPRPRPRPTYEPRP and RRIRFRPPRLPRPRPRPLGCPRP are within 0.2 log units of each other in “shrunken log2 fold change” value: 0.127 for the first, 0.121 for the second.

Going from RRIRERPPRLPRPRPRPLQLPRP to RRIRRRPPRLPRPRPRPIKEPRP, the “shrunken log2 fold change” value rises from -0.33 to 0.0124.

First: RRIRWRPPRLPRPRPRPEFFPRP
Second: RRIRLRPPRLPRPRPRPTYEPRP
The “shrunken log2 fold change” value of the first is higher: 0.54 for the first, -0.308 for the second.

RRIRHRPPRLPRPRPRPCTSPRP and RRIRLRPPRLPRPRPRPEQEPRP are within 0.2 log units of each other in “shrunken log2 fold change” value: -0.0185 for the first, -0.104 for the second.

Going from RRIRYRPPRLPRPRPRPWCQPRP to RRIRDRPPRLPRPRPRPVFHPRP, the “shrunken log2 fold change” value falls from -0.243 to -0.707.

First: RRIRGRPPRLPRPRPRPRMEPRP
Second: RRIRHRPPRLPRPRPRPTGDPRP
The “shrunken log2 fold change” value of the first is higher: 0.483 for the first, 0.208 for the second.

Compared with RRIRCRPPRLPRPRPRPYAEPRP, RRIRVRPPRLPRPRPRPCFHPRP is lower in “shrunken log2 fold change” value: -0.0578 for the first, -0.395 for the second.

First: RRIRPRPPRLPRPRPRPAERPRP
Second: RRIRIRPPRLPRPRPRPESHPRP
The “shrunken log2 fold change” value of the first is higher: 0.291 for the first, -0.0755 for the second.

RRIRLRPPRLPRPRPRPFRNPRP and RRIRSRPPRLPRPRPRPDHLPRP are within 0.2 log units of each other in “shrunken log2 fold change” value: -0.0827 for the first, -0.0228 for the second.

RRIRFRPPRLPRPRPRPPLLPRP and RRIRNRPPRLPRPRPRPHMEPRP are within 0.2 log units of each other in “shrunken log2 fold change” value: -0.0704 for the first, -0.145 for the second.

RRIRCRPPRLPRPRPRPQFTPRP and RRIRFRPPRLPRPRPRPFWMPRP are within 0.2 log units of each other in “shrunken log2 fold change” value: -0.427 for the first, -0.254 for the second.

Going from RRIRDRPPRLPRPRPRPFVWPRP to RRIRQRPPRLPRPRPRPESKPRP, the “shrunken log2 fold change” value falls from 0.525 to 0.0494.

RRIRPRPPRLPRPRPRPSIWPRP and RRIRHRPPRLPRPRPRPEETPRP are within 0.2 log units of each other in “shrunken log2 fold change” value: -0.11 for the first, -0.00605 for the second.

RRIRFRPPRLPRPRPRPKDFPRP and RRIRNRPPRLPRPRPRPTFIPRP are within 0.2 log units of each other in “shrunken log2 fold change” value: -0.158 for the first, -0.279 for the second.

RRIRHRPPRLPRPRPRPTANPRP and RRIRQRPPRLPRPRPRPRHVPRP are within 0.2 log units of each other in “shrunken log2 fold change” value: 0.0557 for the first, -0.14 for the second.

Compared with RRIRMRPPRLPRPRPRPEQTPRP, RRIRARPPRLPRPRPRPHQSPRP is higher in “shrunken log2 fold change” value: 0.057 for the first, 0.265 for the second.

First: RRIRARPPRLPRPRPRPEEIPRP
Second: RRIRYRPPRLPRPRPRPGAWPRP
The “shrunken log2 fold change” value of the first is higher: 0.289 for the first, 0.0731 for the second.

Going from RRIRGRPPRLPRPRPRPMFFPRP to RRIRLRPPRLPRPRPRPKSMPRP, the “shrunken log2 fold change” value falls from 0.336 to -0.0449.

Going from RRIRGRPPRLPRPRPRPQIAPRP to RRIRIRPPRLPRPRPRPAHEPRP, the “shrunken log2 fold change” value falls from 1.94 to 0.215.

RRIRFRPPRLPRPRPRPHGMPRP and RRIRRRPPRLPRPRPRPINPPRP are within 0.2 log units of each other in “shrunken log2 fold change” value: -0.00197 for the first, 0.00585 for the second.

First: RRIRIRPPRLPRPRPRPEHHPRP
Second: RRIRYRPPRLPRPRPRPKVCPRP
The “shrunken log2 fold change” value of the first is lower: -0.206 for the first, 0.0165 for the second.

Going from RRIRSRPPRLPRPRPRPDSAPRP to RRIRMRPPRLPRPRPRPPNTPRP, the “shrunken log2 fold change” value rises from 0.0412 to 0.431.

Going from RRIRLRPPRLPRPRPRPREMPRP to RRIRVRPPRLPRPRPRPTVWPRP, the “shrunken log2 fold change” value rises from 0.149 to 0.408.

First: RRIRHRPPRLPRPRPRPLPNPRP
Second: RRIRQRPPRLPRPRPRPTQSPRP
The “shrunken log2 fold change” value of the first is lower: -0.156 for the first, 0.375 for the second.

Going from RRIRWRPPRLPRPRPRPNHLPRP to RRIRWRPPRLPRPRPRPSLGPRP, the “shrunken log2 fold change” value rises from -0.281 to 0.338.

Going from RRIRPRPPRLPRPRPRPCLEPRP to RRIRKRPPRLPRPRPRPTLMPRP, the “shrunken log2 fold change” value rises from -0.0989 to 0.758.

RRIRRRPPRLPRPRPRPCHIPRP and RRIRERPPRLPRPRPRPSWEPRP are within 0.2 log units of each other in “shrunken log2 fold change” value: -0.309 for the first, -0.25 for the second.

First: RRIRDRPPRLPRPRPRPKRNPRP
Second: RRIRPRPPRLPRPRPRPWKAPRP
The “shrunken log2 fold change” value of the first is higher: 0.136 for the first, -0.133 for the second.

First: RRIRARPPRLPRPRPRPWVRPRP
Second: RRIRSRPPRLPRPRPRPLKWPRP
The “shrunken log2 fold change” value of the first is lower: -0.323 for the first, 0.0381 for the second.

Going from RRIRIRPPRLPRPRPRPNELPRP to RRIRCRPPRLPRPRPRPSNNPRP, the “shrunken log2 fold change” value falls from -0.056 to -0.707.

RRIRRRPPRLPRPRPRPMLPPRP and RRIRVRPPRLPRPRPRPIERPRP are within 0.2 log units of each other in “shrunken log2 fold change” value: -0.000603 for the first, 0.0557 for the second.

First: RRIRARPPRLPRPRPRPYMCPRP
Second: RRIRPRPPRLPRPRPRPVRMPRP
The “shrunken log2 fold change” value of the first is lower: -0.773 for the first, 0.213 for the second.

First: RRIRIRPPRLPRPRPRPDIQPRP
Second: RRIRGRPPRLPRPRPRPFTAPRP
The “shrunken log2 fold change” value of the first is lower: -0.37 for the first, 0.272 for the second.

RRIRMRPPRLPRPRPRPWTQPRP and RRIRVRPPRLPRPRPRPCFVPRP are within 0.2 log units of each other in “shrunken log2 fold change” value: -0.0562 for the first, -0.253 for the second.

Going from RRIRVRPPRLPRPRPRPPCYPRP to RRIRDRPPRLPRPRPRPHDTPRP, the “shrunken log2 fold change” value rises from -0.356 to -0.123.

Compared with RRIRMRPPRLPRPRPRPYQQPRP, RRIRLRPPRLPRPRPRPTKGPRP is higher in “shrunken log2 fold change” value: -0.00196 for the first, 0.226 for the second.

Going from RRIRTRPPRLPRPRPRPTFLPRP to RRIRRRPPRLPRPRPRPNIKPRP, the “shrunken log2 fold change” value rises from -0.0937 to 0.153.

First: RRIRCRPPRLPRPRPRPNNTPRP
Second: RRIRGRPPRLPRPRPRPAENPRP
The “shrunken log2 fold change” value of the first is lower: -0.737 for the first, 0.996 for the second.

RRIRMRPPRLPRPRPRPSEHPRP and RRIRWRPPRLPRPRPRPQLKPRP are within 0.2 log units of each other in “shrunken log2 fold change” value: 0.0665 for the first, 0.147 for the second.

Compared with RRIRSRPPRLPRPRPRPPICPRP, RRIRTRPPRLPRPRPRPQNFPRP is lower in “shrunken log2 fold change” value: 0.635 for the first, -0.18 for the second.

Going from RRIRPRPPRLPRPRPRPNYRPRP to RRIRARPPRLPRPRPRPRYVPRP, the “shrunken log2 fold change” value rises from -0.451 to -0.25.

Compared with RRIRWRPPRLPRPRPRPYQTPRP, RRIRKRPPRLPRPRPRPPEPPRP is higher in “shrunken log2 fold change” value: -0.223 for the first, 0.842 for the second.

Going from RRIRQRPPRLPRPRPRPTHLPRP to RRIRDRPPRLPRPRPRPEGYPRP, the “shrunken log2 fold change” value rises from 0.205 to 0.585.

RRIRERPPRLPRPRPRPHDPPRP and RRIRTRPPRLPRPRPRPNRSPRP are within 0.2 log units of each other in “shrunken log2 fold change” value: -0.0577 for the first, -0.069 for the second.

RRIRYRPPRLPRPRPRPAVFPRP and RRIRLRPPRLPRPRPRPHRDPRP are within 0.2 log units of each other in “shrunken log2 fold change” value: -0.0965 for the first, -0.0661 for the second.

RRIRERPPRLPRPRPRPEFWPRP and RRIRMRPPRLPRPRPRPVRIPRP are within 0.2 log units of each other in “shrunken log2 fold change” value: 0.159 for the first, 0.238 for the second.

Going from RRIRNRPPRLPRPRPRPSNCPRP to RRIRTRPPRLPRPRPRPHVRPRP, the “shrunken log2 fold change” value rises from -0.801 to -0.00804.

In the case of RRIRLRPPRLPRPRPRPPMGPRP, the “shrunken log2 fold change” value is reported as 0.194.
